# Measured values: PMC6820532
# Molecular target: I-Aα^d chain fused to the human IgG1 Fc knob (non-zippered KIH-based BDC2.5mi/IA^g7, α chain) (mouse | human)
# Assay: SDS stability on SDS-PAGE; 12% SDS-PAGE of the purified, co-expressed heterodimers; 0.83% SDS, left unboiled ('native') or boiled (100 °C for 5 min); fully denaturing with 20 mM β2-ME
substance,measurement,value
"BDC2.5mi peptide tethered to the I-Aβ^g7 chain fused to the human IgG1 Fc hole (non-zippered KIH-based BDC2.5mi/IA^g7, β chain) (Fc fusion)",stoichiometry N,1
